Laboratory results: patent US20090053138

Experiments:
[1] = test system: T1, VEGF (Homo sapiens ?), P15692-4; test: FP filter; details: nitrocellulose dot blot
T1 sequence: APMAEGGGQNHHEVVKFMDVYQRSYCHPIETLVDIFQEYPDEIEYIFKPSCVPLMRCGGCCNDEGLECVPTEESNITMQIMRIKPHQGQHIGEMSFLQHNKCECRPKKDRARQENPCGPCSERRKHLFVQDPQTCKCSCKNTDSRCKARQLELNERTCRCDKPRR

[2] = test system: PDGF-AA (Homo sapiens), P04085-2; test: competition; details: PEG-conjugated ARC513 (PEG size per image, not given); 2'-OMe as ARC513; PEG spacers; figure legend states no binding to PDGF-AA
[3] = molecular target: PDGF-AB (Homo sapiens) (UniProt P04085+P01127); test: competition; details: DNA with s1 fU6 fC8 mG9; s2 mG5 mG7 fU10 fC11 mA12; s3 fC5 fC6 fU7 mG8 (f=2'-F, m=2'-OMe); HEG spacers between segments; 3'-inverted dT; dot blot; p348 prints uM, legend prints pM
Chain of PDGF-AB (Homo sapiens) (P01127 82-190, chain 2 of 2, other chains not shown): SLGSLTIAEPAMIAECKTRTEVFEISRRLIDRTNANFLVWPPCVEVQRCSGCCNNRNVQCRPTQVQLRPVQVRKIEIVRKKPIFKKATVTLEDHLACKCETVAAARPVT

[4] = molecular target: PDGF-BB (Rattus norvegicus) (UniProt Q05028); test: competition; details: DNA with s1 fU6 fC8 mG9; s2 mG5 mG7 fU10 fC11 mA12; s3 fC5 fC6 fU7 mG8 (f=2'-F, m=2'-OMe); HEG spacers between segments; 3'-inverted dT; equal affinity to …
Chain of PDGF-BB (Rattus norvegicus) (Q05028 74-182): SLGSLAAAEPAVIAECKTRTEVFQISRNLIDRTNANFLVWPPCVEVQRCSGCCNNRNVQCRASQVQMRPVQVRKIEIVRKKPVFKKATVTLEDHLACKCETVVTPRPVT

## CAGGCTACGUGCAGUUUGAGAAGUCGCGCACGTAGAGCATCAGAAATGATCCTG [TK.131.012.B]
[1]; ARC126 part deoxy, ARC245 part 2'-OMe (first mA-mU pair removed), dGdAdAdA linker
  Kd: 5 nM

## CCCAGGCTACGCGTAGAGCAUCATGATCCTGGG [ARC594 (AX102)]
[2]
  Kd: 2.6 nM

## CAGGCUACGCGTAGAGCAUCATGATCCUG [ARC126]
[3]
  Kd: 0.0001 µM
[4]
  Kd: 0.1 nM

## AUGCAGUUUGAGAAGUCGCGCAU [ARC245]
[1]; all 2'-OMe
  Kd: 2 nM

## CAGGCTACGAUGCAGUUUGAGAAGUCGCGCAUCGTAGAGCATCAGAAATGATCCTG [TK.131.012.A]
[1]; ARC126 part deoxy, ARC245 part 2'-OMe, dGdAdAdA linker
  Kd: 10 nM
